In patent US20250320281A1:

Legend:
[1] = molecular target: HIV-1 Env of isolate MGRM-AG-002 (HIV-1); test: cell-based or functional assay
JR-FL gp120 ΔV3 (HIV-1) = test: ELISA, antigen-coated wells
[2] = molecular target: HIV-1 Env of isolate MGRM-AG-008 (HIV-1); test: cell-based or functional assay
[3] = molecular target: HIV-1 Env of isolate 92BR020 (subtype B pseudovirus) (HIV-1); test: cell-based or functional assay
[4] = molecular target: HIV-1 Env of isolate MGRM-Chronic-B-010 (subtype B pseudovirus) (HIV-1); test: cell-based or functional assay
[5] = molecular target: HIV-1 Env of isolate 93MW959 (HIV-1); test: cell-based or functional assay
[6] = molecular target: HIV-1 Env of isolate MGRM-AG-001 (HIV-1); test: cell-based or functional assay
[7] = molecular target: HIV-1 Env of isolate MGRM-AG-005 (HIV-1); test: cell-based or functional assay
[8] = molecular target: HIV-1 Env of isolate JR-FL (subtype B pseudovirus) (HIV-1); test: cell-based or functional assay
[9] = molecular target: HIV-1 Env of isolate MGRM-AG-003 (HIV-1); test: cell-based or functional assay
[10] = molecular target: HIV-1 Env of isolate MGRM-AG-006 (HIV-1); test: cell-based or functional assay
[11] = molecular target: HIV-1 Env of isolate MGRM-AG-013 (HIV-1); test: cell-based or functional assay
[12] = molecular target: HIV-1 Env of isolate 92UG005 (pseudovirus) (HIV-1); test: cell-based or functional assay
[13] = molecular target: HIV-1 Env of isolate NL43 (subtype B) (HIV-1); test: cell-based or functional assay

Sequence of 5329_C19 (PGT-136) (antibody) (VH): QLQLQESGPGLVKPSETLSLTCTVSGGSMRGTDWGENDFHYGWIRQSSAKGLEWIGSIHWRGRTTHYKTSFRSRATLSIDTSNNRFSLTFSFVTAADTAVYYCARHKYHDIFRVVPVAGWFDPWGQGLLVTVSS
Sequence of 5329_C19 (PGT-136) (antibody) (VL): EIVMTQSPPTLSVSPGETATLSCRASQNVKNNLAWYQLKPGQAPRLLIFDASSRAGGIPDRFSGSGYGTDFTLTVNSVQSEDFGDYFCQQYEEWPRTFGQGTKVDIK
Sequence of 5345_I01 (PGT-137) (antibody) (VH): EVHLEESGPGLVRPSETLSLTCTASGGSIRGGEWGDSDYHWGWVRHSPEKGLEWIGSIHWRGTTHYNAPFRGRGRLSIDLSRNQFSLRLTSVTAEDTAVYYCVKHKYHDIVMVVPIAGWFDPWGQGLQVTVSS
Sequence of 5345_I01 (PGT-137) (antibody) (VL): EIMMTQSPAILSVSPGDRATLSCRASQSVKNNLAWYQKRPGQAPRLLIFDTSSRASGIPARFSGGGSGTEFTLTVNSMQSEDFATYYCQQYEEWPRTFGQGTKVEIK

Substance | IC50 [1] [µg/mL] | EC50 (JR-FL gp120 ΔV3 (HIV-1)) [µg/mL] | IC50 [2] [µg/mL] | IC50 (µg/mL), pseudovirus neutralization [3] [µg/mL] | IC50 (µg/mL), pseudovirus neutralization [4] [µg/mL] | neutralization IC50 [5] [µg/mL] | IC50 [6] [µg/mL] | IC50 [7] [µg/mL] | IC50 (µg/mL), pseudovirus neutralization [8] [µg/mL] | IC50 [9] [µg/mL] | IC50 [10] [µg/mL] | IC50 [11] [µg/mL] | IC50, pseudovirus neutralization [12] [µg/mL] | IC50 neutralization [13] [µg/mL]
4838_L06 (PGT-121) (antibody) | > 50 | > 10 | – | – | – | – | – | – | – | – | – | – | – | –
4858_P08 (PGT-123) (antibody) | > 50 | – | 19.2 | 0.008 | 0.009 | 0.011 | 2.51 | 0.149 | 0.014 | > 50 | 0.014 | 3.37 | 9.79 | –
4877_D15 (PGT-122) (antibody) | > 50 | – | > 50 | 0.021 | 0.018 | 0.016 | 14.5 | 33.9 | 0.026 | 43.7 | 0.028 | 0.521 | > 50 | –
5114_A19 (PGT-128) (antibody) | – | 7.8 | – | – | – | – | – | – | – | – | – | – | – | > 50
5123_A06 (PGT-125) (antibody) | > 50 | – | > 50 | 0.016 | 0.006 | 37.5 | > 50 | > 50 | 0.009 | > 50 | 0.008 | 0.004 | > 50 | –
5141_B17 (PGT-126) (antibody) | > 50 | – | > 50 | 0.015 | 0.005 | 9.44 | > 50 | 1.21 | 0.014 | > 50 | 0.01 | 0.008 | 0.037 | –
5145_B14 (PGT-127) (antibody) | > 50 | – | > 50 | 0.059 | 0.019 | 6.95 | > 50 | > 50 | 0.029 | > 50 | 0.021 | 0.018 | 1.11 | –
5329_C19 (PGT-136) (antibody) | – | 0.1 | – | – | – | – | – | – | – | – | – | – | – | 27.7
5343_B08 (PGT-135) (antibody) | – | 0.2 | – | – | – | – | – | – | – | – | – | – | – | 8.03
5345_I01 (PGT-137) (antibody) | – | 0.1 | – | – | – | – | – | – | – | – | – | – | – | 17.4
